As a reminder, the stoichiometry N is the number of molecules, sites or subunits per partner or assembly.

The source of these data is publication PMC9483790.

For this assay, the target named is endogenous pyruvate kinase M2 (PKM2) (human (endogenous in PLC/PRF/5, SMMC-7721, HCCLM3, Huh7)) (UniProt P14618). Put plainly: cross-linking.

Chain of endogenous pyruvate kinase M2 (PKM2), P14618 1-531 (enzyme; other documents disagree on this pair) (P14618 whole entry): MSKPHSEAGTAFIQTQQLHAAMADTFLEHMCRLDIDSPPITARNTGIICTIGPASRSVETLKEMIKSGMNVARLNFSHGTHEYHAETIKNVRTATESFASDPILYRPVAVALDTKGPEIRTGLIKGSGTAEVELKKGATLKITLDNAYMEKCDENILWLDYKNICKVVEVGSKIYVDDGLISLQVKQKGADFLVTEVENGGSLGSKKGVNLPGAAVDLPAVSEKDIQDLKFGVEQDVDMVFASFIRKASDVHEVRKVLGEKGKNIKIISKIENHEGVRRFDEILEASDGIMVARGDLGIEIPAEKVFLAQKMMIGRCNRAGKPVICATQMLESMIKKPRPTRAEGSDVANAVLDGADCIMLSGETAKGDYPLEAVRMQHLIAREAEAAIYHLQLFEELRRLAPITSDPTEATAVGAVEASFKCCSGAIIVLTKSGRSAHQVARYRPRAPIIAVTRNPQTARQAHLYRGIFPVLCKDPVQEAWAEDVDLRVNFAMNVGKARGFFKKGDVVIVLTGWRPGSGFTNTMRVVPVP

“endogenous pyruvate kinase M2 (PKM2), P14618 1-531 (enzyme; other documents disagree on this pair)” had a stoichiometry N of 2.
